Assay: yeast display, Sf9 membrane polyspecificity reagent, FACS + sequencing; frameworks hold sequencing errors
Method in brief: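 Galactose-induced (36–48 hours) yeast carrying a synthetic nanobody display library were exposed to 10% biotinylated, detergent-solubilized Sf9 membrane reagent at 4 °C for 1 hour. FACS followed streptavidin microbead enrichment, using low and high (top ~1%) gates for expression (anti-HA) and reagent binding (streptavidin). Colony PCR, MiSeq 2 × 250 sequencing and CDR-length filtering followed. Labels for polyreactivity reflect the gate of origin.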
For “QVQLVESGGGLVQAGGSLRLSCAASGSTIVLNDKRCYRQAPGKERELVAAITWSGGSTYYADSVKGRFTISRDNAKNTVYLQMNSLKPEDTAVYYCNVDYYGWPYWYEYDYWGQGTQVTVSS”, the “polyreactivity (PSR sort gate)” value was “high polyreactivity”. For “QVQLVESGGGLVQAGGSLRLSCAASGSTIVYYAMGWYRQAPGKERELVAAITSDGSTDYADSVKGRFTISRDNAKNTVYLQMNSLKPEDTAVYYCAVVTFYFCTDYYDVDYWGQGTQVTVSS”, the “polyreactivity (PSR sort gate)” value was “low polyreactivity”. In the case of “QVQLVESGGGLVQAGGSLRLSCAASGSTIYAYAMGWYRQAPGKERELVAAIDSGGSTYYADSVKGRFTISRDNAKNTVYLQMNSLKPEDTAVYYCAVRHRYTRAYWGRDYWGQGTQVTVSS”, the “polyreactivity (PSR sort gate)” value is reported as “low polyreactivity”. For “QVQLVESGGGLVQAGGSLRLSCAASGSTIYPNAMGWYRQAPGKERELVARISRTGGSTYADSVKGRFTISRDNAKNTVYLQMNSLIPEDSAVYYCARSYASFSWLRTKEPYEYWGQGTQVTVSS”, the “polyreactivity (PSR sort gate)” value was “low polyreactivity”. In the case of “QVQLVESGGGLVQAGGSLRLSCAASGSTIYPNAMGWYRQAPGKERELVAVISSGGSTYYADSVKGRFTISRDNAKNTVYLLMNSLKPVDTAVYYCAADRGTVSYLYSPRAVDYWGQGTQVTVSS”, the “polyreactivity (PSR sort gate)” value is reported as “low polyreactivity”. For “QVQLVESGGGLVQAGGSLRLSCAASGSTIYPNAMGWYRQAPGQERELVAVISSGGSTYYADSVKGRFTISRDNAKNTVYLQMNSLKPEDTAVYYCAADRGTVSYLYSPRAVDYWGQGTQVTVSS”, the “polyreactivity (PSR sort gate)” value was “low polyreactivity”. With “QVQLVESGGGLVQAGGSLRLSCAASGSTIYWYAMGWYRQAPGKERELVAAITDSGDDTYYADSVKGRFTISRDNAKKTVYLQMNSLKPVDTAVYYCAGEAWSVAPYEYWGQGTQVTVSS” the “polyreactivity (PSR sort gate)” value was “low polyreactivity”. For “QVQLVESGGGLVQAGGSLRLSCAASGSTIYYAMGWYRQAPGKERELVAAISYSGGSTRYADSVKGRFTISRDNAKNTVYLEMNFLKPEDTSVYYCAAPRKYYYGESPLDYWGQGTQVTVSS”, the “polyreactivity (PSR sort gate)” value was “high polyreactivity”. In the case of “QVQLVESGGGLVQAGGSLRLSCAASGSTIYYNAMGWYRQAPGKERELVARISRSGGSTYADSVKGRFTISRDNAKNTVYLQMNSVKPEDTAVYYCNADAYGTPEFSSYAVRYDYWGQGTQVTVSS”, the “polyreactivity (PSR sort gate)” value is reported as “low polyreactivity”. With “QVQLVESGGGLVQAGGSLRLSCAASGSTIYYYAMGWYRQAPGKERELVASISDDGSTNYADSVKGRFTISRDNAKNTVYLQMNSLKPEDTAVYYCAAVWWHQFGSAWYQMGYWGQGTQVTVSS” the “polyreactivity (PSR sort gate)” value was “low polyreactivity”. For “QVQLVESGGGLVQAGGSLRLSCAASGSTLAFYAMGWYRQAPGKERELVAAIRRGGSTYYADSVKGRFTISRDNAKNTVYLQMNSLKPEDTAVYYCAARYRRVSYYYWGQGTQVTVSS”, the “polyreactivity (PSR sort gate)” value was “high polyreactivity”. In the case of “QVQLVESGGGLVQAGGSLRLSCAASGSTLAIYAMGCYRQAPGKERELVASISRVGSTNYADSVKGRFTISRDNAKNTVYLQMNSRIPEDTAVYYCAARRWSYVILRAYYYWGQGTQETVSS”, the “polyreactivity (PSR sort gate)” value is reported as “high polyreactivity”. With “QVQLVESGGGLVQAGGSLRLSCAASGSTLAKYAMGWYRQAPGKERELVAAISRSGGRTYYADSEKGRFTISRDNAKNSVYLQMNSLKPEETAVYYCAARARSSRTYHDDYWGQGTQVTVSS” the “polyreactivity (PSR sort gate)” value was “high polyreactivity”. For “QVQLVESGGGLVQAGGSLRLSCAASGSTLAPYVKGWYIQAPGTERELVAVISTRTGRTYYADSVKGRFTISRDNAKNTVSLQMNSLKPEDTAVYYCAAAYGWSWYRYDYWGQGTQVTVSS”, the “polyreactivity (PSR sort gate)” value was “high polyreactivity”. In the case of “QVQLVESGGGLVQAGGSLRLSCAASGSTLAVYSMGWYRQAPGKEREFVAAISWSGVSTYYADSVKGRFTISRDNAKNTVYLQMNSLKPEDTAVYYCAAKRVRALYGGSEGGYWGQGTQVTVSS”, the “polyreactivity (PSR sort gate)” value is reported as “low polyreactivity”. With “QVQLVESGGGLVQAGGSLRLSCAASGSTLDLYAMGWYRQAPGKEREFVASISWSGGSTYYADSVKGRFTISRDNAKNTVYLQMNRLKPEDTAVYYCAADLVIRGSLYVSSWYDYWGQGSQVTVSS” the “polyreactivity (PSR sort gate)” value was “low polyreactivity”. For “QVQLVESGGGLVQAGGSLRLSCAASGSTLDVYDMGWYRKAPGKEREFVATISFSVGSTDYADSVKGRFTISRDNAKNTVYLQMNSLKPEDTAVYYCAADVSEWSNQYFDSYLRMDYWGQGTQVTVSS”, the “polyreactivity (PSR sort gate)” value was “low polyreactivity”. With “QVQLVESGGGLVQAGGSLRLSCAASGSTLFFNARGWYRQAPGKERELVAGITDGGNTNYADSVKGRFTISRDNAKNTVYLQMNSLKPEDTAVYYCNARYSKKGESQREYDYWGQGTQVTVSS” the “polyreactivity (PSR sort gate)” value was “low polyreactivity”. In the case of “QVQLVESGGGLVQAGGSLRLSCAASGSTLFNYDMGWYRQAPGKERELVAAFDWGDGTTYYADSVKGRFTISRDNAKNTVYLQMNSLKPEDTAVYYCAAEEFYSPYDYWGQGTQVTVSS”, the “polyreactivity (PSR sort gate)” value is reported as “high polyreactivity”. In the case of “QVQLVESGGGLVQAGGSLRLSCAASGSTLFTYAMGWYRQAPGNERELVAAITSSGSTYYADSVKGRFTISRDNATNTVSLQMKSLKPEDTAVYYCAGPGYRYTNYYYWGQGTQVTVSS”, the “polyreactivity (PSR sort gate)” value is reported as “low polyreactivity”. In the case of “QVQLVESGGGLVQAGGSLRLSCAASGSTLGINAMGWYRQAPGKERELVAAITWNGGSTYYADSVKGRFTISRDNAKNTVYLQMNSLKPEDTAVYYCAARTYSSRYYRTREGFDYYYWGQGTQVTVSS”, the “polyreactivity (PSR sort gate)” value is reported as “high polyreactivity”. For “QVQLVESGGGLVQAGGSLRLSCAASGSTLGQYAMGWYRQAPGKERELVAASRRGVRTYYADSVKGRFTISRDNAKNTVYFQMNSLKPEDTAVFYCAARRDVSRPVVGTMGYWGQGSQVTVSS”, the “polyreactivity (PSR sort gate)” value was “high polyreactivity”. With “QVQLVESGGGLVQAGGSLRLSCAASGSTLGRYAMGWYRQAPGKERELVAAISSSGTTYYADSVKGRITISRDNAKNTVYLQMNSLKPEDTAVYYCNARGFRVARHAAWYQYDYWGQGTQVTVSS” the “polyreactivity (PSR sort gate)” value was “high polyreactivity”. For “QVQLVESGGGLVQAGGSLRLSCAASGSTLGRYTMGWSRQAPGKERELVAAIRASGTSTYYADSVKGRFTISRDNAKNTVYLQMNSLKPEDTAVYYCNALQFGTVRLDSWGLGTQVTVSS”, the “polyreactivity (PSR sort gate)” value was “low polyreactivity”. For “QVQLVESGGGLVQAGGSLRLSCAASGSTLGRYTMGWYRQAPGKERELVATITASGGGTYYADSVKGRFTISRDTAKNTVYLQMNSLKPEDTAVYYCNAVLWYHFGYDYWGQGTQVTVSS”, the “polyreactivity (PSR sort gate)” value was “low polyreactivity”. For “QVQLVESGGGLVQAGGSLRLSCAASGSTLGWYVMGWYRQAPGKERELVAAISKSGGRTYYADSVKGRFTISRDNAKNTVYLQMNSLKPEDTAVYYCAAYPPSDFYYEHDYWGQGTQVSVSS”, the “polyreactivity (PSR sort gate)” value was “high polyreactivity”. With “QVQLVESGGGLVQAGGSLRLSCAASGSTLGYNVMGWYRQAPGKERELVAAISGDGSTNYADSVNGRFTMSRDNAKNTVYLQMNSLKPEDTAVYYCNAPFWGYRTSFSYPVVLRFDYWGQGTQVTVSS” the “polyreactivity (PSR sort gate)” value was “low polyreactivity”. In the case of “QVQLVESGGGLVQAGGSLRLSCAASGSTLGYYSMGWYRQAPGKERELVAAIRYSDGNTYYADSVKGRFTISRDNAKNTVYLQMNSLKPEDTAVYYCAADGGYYGRDYWGQVTQVTVSS”, the “polyreactivity (PSR sort gate)” value is reported as “high polyreactivity”. With “QVQLVESGGGLVQAGGSLRLSCAASGSTLKLNAMGWYRQAPGKERELVAAITRSGGSTYYADSVKGRFTISRDNAKNTVYLQMNSLKPEDTAVYYCAADVLWDEFGYWGQGTQVTVSS” the “polyreactivity (PSR sort gate)” value was “low polyreactivity”. For “QVQLVESGGGLVQAGGSLRLSCAASGSTLLTYTMGWYRQAPGKERELVASITTSGGSTYADSVKGRFTISRDNAKNTVYLQLNSLKPEDTAVYYCAALYLWYSYHVVYQYDYWGQGTQVTVSS”, the “polyreactivity (PSR sort gate)” value was “low polyreactivity”. With “QVQLVESGGGLVQAGGSLRLSCAASGSTLLTYTMGWYRQAPGKESELVASITTSGGSTYYADSVKGRFTISRDNAKNTVYLQMNSLKPEDTAVYYWGQGTQVTVSS” the “polyreactivity (PSR sort gate)” value was “low polyreactivity”.

Source: the nanobody polyreactivity screen of Harvey et al. (2022)
